Test results taken from patent publication US5470740.

System: NsiI restriction endonuclease (Neisseria sicca BRL 397)
Assay: cleavage_in_vitro
Conditions: crude sonicated extract, REact 3 buffer, 37 C, 1 h; each of pUC123 and pUC140

With lambda DNA the activity (units/g cells) was greater than 26000.
